The target of the assay is T1, N-terminal domain of GpsB (GpsB 1-75) (S. aureus, UniProt Q2FYI5 1-75).
T1 construct: GpsB, S. aureus, amino acids 1-75 (N-terminal domain); source: E. coli BL21 (DE3), purified (Ni-NTA, SUMO protease, second Ni-NTA); not shown: His, N-terminal, cleaved; SUMO, N-terminal, cleaved
T1 sequence (looked up): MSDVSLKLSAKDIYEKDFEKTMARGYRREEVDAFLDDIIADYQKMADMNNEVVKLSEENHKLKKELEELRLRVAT
The experiment in a line: SEC; GpsB(1-75) at 90 uM mixed with SUMO-FacZ at 30 uM in 500 ul, salt 150-200 mM; Superdex75 Increase 10/300 in 20 mM HEPES pH 7.6, 100 mM NaCl, 1 mM DTT, 0.5 ml/min. Conditions: both partners purified.

B1: His-SUMO fusion bearing a 3x concatenation of residues 127-146 of FacZ (native motif NRHYRR) (domain or fragment)
chain: EIADKWQNRHYRRGSANYKAGSAGEIADKWQNRHYRRGSANYKAGSAGEIADKWQNRHYRRGSANYKA
notes: FacZ (factor preventing extra Z-rings), S. aureus, residues 127-146, first of three repeats; linker; FacZ, S. aureus, residues 127-146, second repeat; FacZ, S. aureus, residues 127-146, third repeat; The methods call the stretch 127-145, the results and legends 127-146; also called SUMO-3x-FacZ (127-146); His-SUMO-FacZ_(127-145); source: E. coli BL21 (DE3), purified (Ni-NTA); not shown: His, …
B1: the binding result is “binds”.

These data come from PMC10914604, “FacZ is a GpsB-interacting protein that prevents aberrant division-site placement in Staphylococcus aureus” (Nature Microbiology, 2024).
